Several values for one entry are separate records, joined by “and”; a condition that tells them apart may be missing. Identical values can stand only once.
Tests used:
[1] = target: human fragile X mental retardation protein (FMRP) (human) (UniProt Q06787); assay: Luminex capture immunoassay, 2.5 ug human lymphoblastoid control extract
[2] = target: human fragile X mental retardation protein (FMRP) (human) (UniProt Q06787); assay: Luminex capture immunoassay, 40 ug human lymphoblastoid control extract
[3] = target: human fragile X mental retardation protein (FMRP) (human) (UniProt Q06787); assay: Luminex capture immunoassay, 1.25 ug human lymphoblastoid control extract
[4] = target: human fragile X mental retardation protein (FMRP) (human) (UniProt Q06787); assay: Luminex capture immunoassay, 5 ug human lymphoblastoid control extract
[5] = target: human fragile X mental retardation protein (FMRP) (human) (UniProt Q06787); assay: Luminex capture immunoassay, 10 ug human lymphoblastoid control extract
[6] = target: mouse fragile X mental retardation protein (FMRP) (mouse) (UniProt P35922); assay: Luminex capture immunoassay, 20 ug mouse brain extract
[7] = target: mouse fragile X mental retardation protein (FMRP) (mouse) (UniProt P35922); assay: Luminex capture immunoassay, 5 ug mouse brain extract
[8] = target: human fragile X mental retardation protein (FMRP) (human) (UniProt Q06787); assay: Luminex capture immunoassay, 80 ug human lymphoblastoid control extract
[9] = target: mouse fragile X mental retardation protein (FMRP) (mouse) (UniProt P35922); assay: Luminex capture immunoassay, 1.25 ug mouse brain extract
[10] = target: human fragile X mental retardation protein (FMRP) (human) (UniProt Q06787); assay: Luminex capture immunoassay, 20 ug human lymphoblastoid control extract
[11] = target: mouse fragile X mental retardation protein (FMRP) (mouse) (UniProt P35922); assay: Luminex capture immunoassay, 2.5 ug mouse brain extract
[12] = target: mouse fragile X mental retardation protein (FMRP) (mouse) (UniProt P35922); assay: Luminex capture immunoassay, 10 ug mouse brain extract
[13] = target: mouse fragile X mental retardation protein (FMRP) (mouse) (UniProt P35922); assay: Luminex capture immunoassay, 40 ug mouse brain extract
[14] = target: mouse fragile X mental retardation protein (FMRP) (mouse) (UniProt P35922); assay: Luminex capture immunoassay, 80 ug mouse brain extract

anti-PrP mAb 3F4 (antibody)
phycoerythrin fluorescence (MFI) [1]: 6 MFI
phycoerythrin fluorescence (MFI) [2]: 5 MFI and 6 MFI
phycoerythrin fluorescence (MFI) [3]: 5 MFI
phycoerythrin fluorescence (MFI) [4]: 5 MFI
phycoerythrin fluorescence (MFI) [5]: 5 MFI and 4 MFI
phycoerythrin fluorescence (MFI) [6]: 17.5 MFI and 18 MFI
phycoerythrin fluorescence (MFI) [7]: 7 MFI and 8 MFI
phycoerythrin fluorescence (MFI) [8]: 6 MFI
phycoerythrin fluorescence (MFI) [9]: 7 MFI and 5 MFI
phycoerythrin fluorescence (MFI) [10]: 5 MFI and 6 MFI
phycoerythrin fluorescence (MFI) [11]: 7 MFI and 6 MFI
phycoerythrin fluorescence (MFI) [12]: 11 MFI and 10 MFI
phycoerythrin fluorescence (MFI) [13]: 36 MFI and 39.5 MFI
phycoerythrin fluorescence (MFI) [14]: 51 MFI and 49 MFI

Reference: patent publication US20140127724A1
